Experimental data taken from article PMC10776994, “The SDS22:PP1:I3 complex: SDS22 binding to PP1 loosens the active site metal to prime metal exchange” (The Journal of Biological Chemistry, 2023).
Changes are numbered by the printed parent chain. Names and notes keep the numbering of the source.

How the values were obtained:
[1] = biological target: PP1alpha 7-330 (Homo sapiens) (UniProt P62136); assay: SPR; details: cited from earlier work
[2] = biological target: T1, SDS22_(56-360):PP1α_(7-330) complex (UniProt Q15435 56-360; P62136 7-330); assay: SPR; His6-PP1 constructs or SDS22_(56-360):PP1α_(7-330) captured on a Ni-NTA chip (NiHC200M), I3 and variants injected; 25 °C; 20 mM Tris pH 8.0, 500 mM NaCl, 0.5 mM TCEP, 0.05% Tween-20; one-to-one one-state or two-state fit; details: both partners purified
T1 construct: SDS22 (PPP1R7), residues 56-360; Protein phosphatase 1 alpha catalytic subunit (PP1α), residues 7-330; PP1 in this complex lacks the M1 metal; The same complex treated with EDTA (M2 metal extracted) is kept as this molecule and told apart by assay a4; the His6 tag of SDS22 was cleaved, so it is probably His6-PP1; also called SDS22:PP1; SDS22:PP1_(M2-metal-free) / metal-free …
T1 sequence (Q15435 56-360, chain 1 of 2): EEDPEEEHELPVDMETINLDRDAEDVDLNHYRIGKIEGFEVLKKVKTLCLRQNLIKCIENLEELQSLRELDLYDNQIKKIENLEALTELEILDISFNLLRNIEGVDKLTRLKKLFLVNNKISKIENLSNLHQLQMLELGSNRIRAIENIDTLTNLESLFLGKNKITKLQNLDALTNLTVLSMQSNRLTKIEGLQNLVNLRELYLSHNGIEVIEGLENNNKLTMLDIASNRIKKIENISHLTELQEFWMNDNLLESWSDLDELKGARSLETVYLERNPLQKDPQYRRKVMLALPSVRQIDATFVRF
T1 sequence (P62136 7-330, chain 2 of 2): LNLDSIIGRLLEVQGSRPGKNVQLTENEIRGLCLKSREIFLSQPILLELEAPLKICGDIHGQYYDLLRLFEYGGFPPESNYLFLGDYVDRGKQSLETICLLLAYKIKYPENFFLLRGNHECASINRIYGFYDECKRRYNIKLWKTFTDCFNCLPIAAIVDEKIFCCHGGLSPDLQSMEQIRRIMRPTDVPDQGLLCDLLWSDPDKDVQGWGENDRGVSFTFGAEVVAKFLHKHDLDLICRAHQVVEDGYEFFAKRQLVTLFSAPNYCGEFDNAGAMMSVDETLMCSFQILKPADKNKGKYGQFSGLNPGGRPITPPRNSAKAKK

[3] = biological target: T2, PP1α_(1-330) (UniProt P62136 1-330); assay: NMR titration; 2D [1H,15N] HSQC of 15N-labelled I3_(1-126) free and in complex; loss of cross-peaks on binding; 283 K, 20 mM Bis-Tris pH 6.8, 500 mM NaCl, 0.5 mM TCEP; details: both partners purified
T2 construct: Protein phosphatase 1 alpha catalytic subunit (PP1α), residues 1-330; also called Protein Phosphatase 1
T2 sequence (P62136 whole entry, the tested form may be a part): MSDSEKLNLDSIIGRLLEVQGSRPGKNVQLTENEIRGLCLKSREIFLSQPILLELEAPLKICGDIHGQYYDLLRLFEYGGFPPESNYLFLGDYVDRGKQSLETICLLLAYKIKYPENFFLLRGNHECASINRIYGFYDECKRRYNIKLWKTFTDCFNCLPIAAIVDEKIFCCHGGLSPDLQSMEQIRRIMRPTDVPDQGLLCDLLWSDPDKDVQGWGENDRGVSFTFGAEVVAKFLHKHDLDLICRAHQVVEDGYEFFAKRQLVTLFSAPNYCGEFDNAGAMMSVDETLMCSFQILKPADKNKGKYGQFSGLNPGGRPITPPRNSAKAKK

Sequence of PP1alpha 7-330 (Homo sapiens) (P62136 7-330): as the sequence (P62136 7-330, chain 2 of 2) above

For I3 27-68 (from UniProt O60927), the Kd [1] is listed as 10 nM.

In the case of I3 1-126 (from UniProt O60927), the Kd [1] is listed as 10 nM.

B1: Inhibitor-3 (I3), I3_(1-126) (natural protein, human, UniProt O60927 1-126, looked up)
chain: MAEAGAGLSETVTETTVTVTTEPENRSLTIKLRKRKPEKKVEWTSDTVDNEHMGRRSSKCCCIYEKPRAFGESSTESDEEEEEGCGHTHCVRGHRKGRRRATLGPTPTTPPQPPDPSQPPPGPMQH
notes: 15N-labelled in the NMR experiments, unlabelled in SPR; also called FL I3; PPP1R11; source: E. coli BL21 (DE3), purified (Ni-NTA, TEV, heat 95 °C, SEC); not shown: His6, N-terminal, cleaved; MBP, N-terminal, cleaved
For B1, the Kd [2] was 132 ± 5 nM and the binding result [3] was “binds”.

B2: I3_(1-126) C60S/C61S/C62S (natural protein, human, UniProt O60927 1-126, looked up)
chain: B1 chain with C60S, C61S, C62S
notes: also called I3_(1-126) SSS; I3 SSS; source: E. coli BL21 (DE3), purified (Ni-NTA, TEV, heat 95 °C, SEC); not shown: His6, N-terminal, cleaved; MBP, N-terminal, cleaved
In the case of B2, the Kd [2] is reported as 400 ± 44 nM.
